In article PMC9352680, “A comprehensive thermodynamic model for RNA binding by the Saccharomyces cerevisiae Pumilio protein PUF4” one finds Kd data, which are given here for 46 molecules.

Sequences and labels used below:
T1: PUF4 RNA-binding domain (Saccharomyces cerevisiae, UniProt P25339 537-888)
T1 sequence: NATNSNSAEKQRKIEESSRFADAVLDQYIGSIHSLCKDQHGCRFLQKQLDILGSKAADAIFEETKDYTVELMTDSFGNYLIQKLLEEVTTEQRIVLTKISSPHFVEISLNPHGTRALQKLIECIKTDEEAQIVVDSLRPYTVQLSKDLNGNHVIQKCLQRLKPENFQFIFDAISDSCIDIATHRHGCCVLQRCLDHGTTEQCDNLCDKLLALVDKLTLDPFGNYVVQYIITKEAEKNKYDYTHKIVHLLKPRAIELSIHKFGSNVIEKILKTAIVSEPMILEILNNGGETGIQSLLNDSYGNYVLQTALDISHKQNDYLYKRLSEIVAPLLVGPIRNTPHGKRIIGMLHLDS

This data set deals with T1, PUF4 RNA-binding domain. Nature of the data set: Mg; RNA-MaP; 20 mM Na-HEPES pH 7.4, 30 mM KOAc, 0.75 mM MgCl2, 0.1% Tween-20, 5% glycerol, 0.1 mg/mL BSA, 2 mM DTT; 25 C; 0.0125-409.6 nM protein. The note with it: tags: N-His6-TEV cleaved; C-SNAP kept, Cy3B-labelled; label: tethered on chip by stalled RNA polymerase.
By Kd is commonly meant the equilibrium constant for the complex coming apart. Higher therefore signals weaker binding. For UCUCUUUGUACUAGCUCUCUU (ssRNA) [Ic_S1_P4E.1_K4.1_C4.1_H4.1_A4.1_[T5C]_[A6T]_[T7A]_F4.1_[T8G]_[A9C]_T4.1], binding was characterised by a dissociation constant (Kd) of 643 nM.

On to UCUCUUUGUACUUGAUCUCUU (ssRNA) [Ic_S1_P4E.1_K4.1_C4.1_H4.1_A4.1_[T5C]_[A6T]_F4.1_[T8G]_T4.1], for which binding was put at a Kd of 465 nM.

UCUCUUUGUACUCUAUCUCUU (ssRNA) [Ic_S1_P4E.1_K4.1_C4.1_H4.1_A4.1_[T5C]_[A6T]_[T7C]_F4.1_T4.1]: the Kd worked out at 3.48 nM.

The molecule UCUCUUUGUACUCAUUCUCUU (ssRNA) [Ic_S1_P4E.1_K4.1_C4.1_H4.1_A4.1_[T5C]_[A6T]_[T7C]_F4.1_[T8A]_[A9T]_T4.1] came in with a Kd of 150 nM.

Consider UCUCUUUGUACUUAUUCUCUU (ssRNA) [Ic_S1_P4E.1_K4.1_C4.1_H4.1_A4.1_[T5C]_[A6T]_F4.1_[T8A]_[A9T]_T4.1], for which the affinity, expressed as Kd, was 34.1 nM.

The molecule UCUCUUUGUACUCCCUCUCUU (ssRNA) [Ic_S1_P4E.1_K4.1_C4.1_H4.1_A4.1_[T5C]_[A6T]_[T7C]_F4.1_[T8C]_[A9C]_T4.1] registered a Kd of 508 nM.

With UCUCUUUGUACCUUUUCUCUU (ssRNA) [Ic_S1_P4E.1_K4.1_C4.1_H4.1_A4.1_[T5C]_[A6C]_F4.1_[A9T]_T4.1], the Kd turned out to be 34.8 nM.

On to UCUCUUUGUACUAACUCUCUU (ssRNA) [Ic_S1_P4E.1_K4.1_C4.1_H4.1_A4.1_[T5C]_[A6T]_[T7A]_F4.1_[T8A]_[A9C]_T4.1], for which binding was put at a Kd of 330 nM.

The molecule UCUCUUUGUACUUGUUCUCUU (ssRNA) [Ic_S1_P4E.1_K4.1_C4.1_H4.1_A4.1_[T5C]_[A6T]_F4.1_[T8G]_[A9T]_T4.1] returned a dissociation constant Kd of 51.9 nM.

On to UCUCUUUGUACUUGCUCUCUU (ssRNA) [Ic_S1_P4E.1_K4.1_C4.1_H4.1_A4.1_[T5C]_[A6T]_F4.1_[T8G]_[A9C]_T4.1], for which binding was put at a Kd of 414 nM.

With UCUCUUUGUGUAAAUCUCUU (ssRNA) [Ib_S1_P3E.1_K3.1_C3.1_H3.1_[A4G]_A3.1_F3.1_[T7A]_T3.1], binding was characterised by a dissociation constant (Kd) of 202 nM.

As for UCUCUUUGUACUACCUCUCUU (ssRNA) [Ic_S1_P4E.1_K4.1_C4.1_H4.1_A4.1_[T5C]_[A6T]_[T7A]_F4.1_[T8C]_[A9C]_T4.1], the affinity, expressed as Kd, was 478 nM.

UCUCUUAGUAUAUGUCUCUU (ssRNA) [Ib_S1_P3E.1_K3.1_C3.1_H3.1_[T1A]_A3.1_F3.1_[A8G]_T3.1]: the Kd was greater than 2300 nM.

Turning to UCUCUUUGUACUCUUUCUCUU (ssRNA) [Ic_S1_P4E.1_K4.1_C4.1_H4.1_A4.1_[T5C]_[A6T]_[T7C]_F4.1_[A9T]_T4.1], the Kd was determined as 33.7 nM.

Consider UCUCUUUGUACCUCGUCUCUU (ssRNA) [Ic_S1_P4E.1_K4.1_C4.1_H4.1_A4.1_[T5C]_[A6C]_F4.1_[T8C]_[A9G]_T4.1], for which the Kd worked out at 575 nM.

Regarding UCUCUUUGUACUUAGUCUCUU (ssRNA) [Ic_S1_P4E.1_K4.1_C4.1_H4.1_A4.1_[T5C]_[A6T]_F4.1_[T8A]_[A9G]_T4.1], binding was put at a Kd of 43 nM.

UCUCUUUGUACCUAAUCUCUU (ssRNA) [Ic_S1_P4E.1_K4.1_C4.1_H4.1_A4.1_[T5C]_[A6C]_F4.1_[T8A]_T4.1] had an equilibrium dissociation constant (Kd) of 66.3 nM.

Take UCUCUUUGUACUCCUUCUCUU (ssRNA) [Ic_S1_P4E.1_K4.1_C4.1_H4.1_A4.1_[T5C]_[A6T]_[T7C]_F4.1_[T8C]_[A9T]_T4.1]: binding was put at a Kd of 407 nM.

Regarding UCUCUUUGUAUGUAUCUCUU (ssRNA) [Ic_S1_P3E.1_K3.1_C3.1_H3.1_A3.1_[A6G]_F3.1_T3.1], binding was put at a Kd of 66.5 nM.

UCUCUUUGUACUGGUUCUCUU (ssRNA) [Ic_S1_P4E.1_K4.1_C4.1_H4.1_A4.1_[T5C]_[A6T]_[T7G]_F4.1_[T8G]_[A9T]_T4.1] registered a Kd of 732 nM.

Molecule UCUCUUUGUACCUGUUCUCUU (ssRNA) [Ic_S1_P4E.1_K4.1_C4.1_H4.1_A4.1_[T5C]_[A6C]_F4.1_[T8G]_[A9T]_T4.1] registered a Kd of 94 nM.

UCUCUUGGUAUAUUUCUCUU (ssRNA) [Ib_S1_P3E.1_K3.1_C3.1_H3.1_[T1G]_A3.1_F3.1_[A8T]_T3.1] came in with a Kd of 1250 nM.

Consider UCUCUUUGUACUAUCUCUCUU (ssRNA) [Ic_S1_P4E.1_K4.1_C4.1_H4.1_A4.1_[T5C]_[A6T]_[T7A]_F4.1_[A9C]_T4.1], for which the Kd was 13.8 nM.

As to UCUCUUUGUACCUCUUCUCUU (ssRNA) [Ic_S1_P4E.1_K4.1_C4.1_H4.1_A4.1_[T5C]_[A6C]_F4.1_[T8C]_[A9T]_T4.1], the equilibrium dissociation constant (Kd) turned out to be 587 nM.

Take UCUCUUUGUACUCGCUCUCUU (ssRNA) [Ic_S1_P4E.1_K4.1_C4.1_H4.1_A4.1_[T5C]_[A6T]_[T7C]_F4.1_[T8G]_[A9C]_T4.1]: the affinity, expressed as Kd, was 972 nM.

As to UCUCUUUGUACUGCGUCUCUU (ssRNA) [Ic_S1_P4E.1_K4.1_C4.1_H4.1_A4.1_[T5C]_[A6T]_[T7G]_F4.1_[T8C]_[A9G]_T4.1], binding was put at a Kd of 1280 nM.

For the molecule UCUCUUUGUACUACAUCUCUU (ssRNA) [Ic_S1_P4E.1_K4.1_C4.1_H4.1_A4.1_[T5C]_[A6T]_[T7A]_F4.1_[T8C]_T4.1], the Kd was 140 nM.

In the case of UCUCUUUGUACUCACUCUCUU (ssRNA) [Ic_S1_P4E.1_K4.1_C4.1_H4.1_A4.1_[T5C]_[A6T]_[T7C]_F4.1_[T8A]_[A9C]_T4.1], the Kd was 1060 nM.

UCUCUUUGUACUAUUUCUCUU (ssRNA) [Ic_S1_P4E.1_K4.1_C4.1_H4.1_A4.1_[T5C]_[A6T]_[T7A]_F4.1_[A9T]_T4.1] registered a Kd of 9.22 nM.

For UCUCUUUGUACCUAUUCUCUU (ssRNA) [Ic_S1_P4E.1_K4.1_C4.1_H4.1_A4.1_[T5C]_[A6C]_F4.1_[T8A]_[A9T]_T4.1], binding was put at a Kd of 24.6 nM.

Turning to UCUCUUCGUAUAUUUCUCUU (ssRNA) [Ib_S1_P3E.1_K3.1_C3.1_H3.1_[T1C]_A3.1_F3.1_[A8T]_T3.1], the Kd is 830 nM.

As to UCUCUUUGUACUGCAUCUCUU (ssRNA) [Ic_S1_P4E.1_K4.1_C4.1_H4.1_A4.1_[T5C]_[A6T]_[T7G]_F4.1_[T8C]_T4.1], binding was put at a Kd of 668 nM.

As for UCUCUUUGUACCUACUCUCUU (ssRNA) [Ic_S1_P4E.1_K4.1_C4.1_H4.1_A4.1_[T5C]_[A6C]_F4.1_[T8A]_[A9C]_T4.1], binding was put at a Kd of 56.6 nM.

UCUCUUUGUACUUGGUCUCUU (ssRNA) [Ic_S1_P4E.1_K4.1_C4.1_H4.1_A4.1_[T5C]_[A6T]_F4.1_[T8G]_[A9G]_T4.1] registered a dissociation constant (Kd) of 623 nM.

In turn, UCUCUUUGUACUAAAUCUCUU (ssRNA) [Ic_S1_P4E.1_K4.1_C4.1_H4.1_A4.1_[T5C]_[A6T]_[T7A]_F4.1_[T8A]_T4.1] displayed an equilibrium dissociation constant (Kd) of 69.7 nM.

In turn, UCUCUUUGUACUGUGUCUCUU (ssRNA) [Ic_S1_P4E.1_K4.1_C4.1_H4.1_A4.1_[T5C]_[A6T]_[T7G]_F4.1_[A9G]_T4.1] returned a Kd of 50.5 nM.

As to UCUCUUUGUACUCCGUCUCUU (ssRNA) [Ic_S1_P4E.1_K4.1_C4.1_H4.1_A4.1_[T5C]_[A6T]_[T7C]_F4.1_[T8C]_[A9G]_T4.1], the dissociation constant (Kd) stood at 969 nM.

In turn, UCUCUUUGUACUUCUUCUCUU (ssRNA) [Ic_S1_P4E.1_K4.1_C4.1_H4.1_A4.1_[T5C]_[A6T]_F4.1_[T8C]_[A9T]_T4.1] yielded a Kd of 75.2 nM.

UCUCUUUGUACUUCGUCUCUU (ssRNA) [Ic_S1_P4E.1_K4.1_C4.1_H4.1_A4.1_[T5C]_[A6T]_F4.1_[T8C]_[A9G]_T4.1]: the Kd was determined as 424 nM.

UCUCUUUGUACCUUGUCUCUU (ssRNA) [Ic_S1_P4E.1_K4.1_C4.1_H4.1_A4.1_[T5C]_[A6C]_F4.1_[A9G]_T4.1] returned a Kd of 27.3 nM.

UCUCUUUGUACCUCCUCUCUU (ssRNA) [Ic_S1_P4E.1_K4.1_C4.1_H4.1_A4.1_[T5C]_[A6C]_F4.1_[T8C]_[A9C]_T4.1] gave a Kd of 570 nM.

For the molecule UCUCUUUGUACUAUAUCUCUU (ssRNA) [Ic_S1_P4E.1_K4.1_C4.1_H4.1_A4.1_[T5C]_[A6T]_[T7A]_F4.1_T4.1], binding was put at a Kd of 1.28 nM.

For UCUCUUUGUACUGCCUCUCUU (ssRNA) [Ic_S1_P4E.1_K4.1_C4.1_H4.1_A4.1_[T5C]_[A6T]_[T7G]_F4.1_[T8C]_[A9C]_T4.1], the affinity, expressed as Kd, was 684 nM.

With UCUCUUUGUACUCAGUCUCUU (ssRNA) [Ic_S1_P4E.1_K4.1_C4.1_H4.1_A4.1_[T5C]_[A6T]_[T7C]_F4.1_[T8A]_[A9G]_T4.1], the Kd was 738 nM.

For the molecule UCUCUUUGUACUCUGUCUCUU (ssRNA) [Ic_S1_P4E.1_K4.1_C4.1_H4.1_A4.1_[T5C]_[A6T]_[T7C]_F4.1_[A9G]_T4.1], the dissociation constant Kd came to 30.5 nM.

On to UCUCUUUGUACUGUAUCUCUU (ssRNA) [Ic_S1_P4E.1_K4.1_C4.1_H4.1_A4.1_[T5C]_[A6T]_[T7G]_F4.1_T4.1], for which binding was put at a Kd of 5.91 nM.
